Test results taken from article PMC8826056, “Different Functions of IbRAP2.4, a Drought-Responsive AP2/ERF Transcription Factor, in Regulating Root Development Between Arabidopsis and Sweetpotato”.

B1: GCC-box probe (dsDNA)
DNA 1: TTCATAAGAGCCGCCACTCATAAGAGCCGCCACT
DNA 2: AGTGGCGGCTCTTATGAGTGGCGGCTCTTATGAA
B2: DRE probe (dsDNA)
DNA 1: TTGATACTACCGACATGAGTTGATACTACCGACATGAGTT
DNA 2: AACTCATGTCGGTAGTATCAACTCATGTCGGTAGTATCAA

Biological target: GST-IbRAP2.4 (Ipomoea batatas (Sushu 16), UniProt A0A3S6I5T9 1-294)
Experiment: EMSA; dose-dependent, 0.5-4 ug protein; unlabeled probe competes; 200 mM HEPES, 50 mM KCl, 5 mM DTT, 1 mM EDTA, 20 pmol poly dI-dC, 30 uL (so in the source), pH not stated; room temperature 30 min; 8% native PAGE
Settings: protein: recombinant; tags: GST; label: 32P (T4 PNK, gamma-ATP); blunt (annealed oligonucleotide set)

GST-IbRAP2.4, sequence (A0A3S6I5T9 entry or part of it): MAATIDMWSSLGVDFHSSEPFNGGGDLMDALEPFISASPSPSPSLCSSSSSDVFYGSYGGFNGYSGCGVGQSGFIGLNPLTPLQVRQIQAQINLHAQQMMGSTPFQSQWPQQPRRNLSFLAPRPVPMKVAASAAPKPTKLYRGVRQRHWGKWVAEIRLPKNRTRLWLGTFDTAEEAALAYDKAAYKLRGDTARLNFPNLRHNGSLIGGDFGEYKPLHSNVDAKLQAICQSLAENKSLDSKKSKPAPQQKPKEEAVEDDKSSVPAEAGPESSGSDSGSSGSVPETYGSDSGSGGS

Binder	binding result
B1	binds
B2	binds
